This passage reports IC50 results from the Immune Epitope Database (IEDB).

This assay concerns the target HLA-A*02:01. The experiment in a line: IEDB peptide-MHC binding, purified MHC/competitive/fluorescence; ≥ and ≤ were set here for values at or beyond the usual limits of such assays. As to conditions: source organism: Homo sapiens.
Take HLVEALYLVCG: the IC50 worked out at 190 nM. In the case of SHLVEALYL, the IC50 was 59400 nM. Consider YLVCGERGFFY, for which the IC50 worked out at 8590 nM. Turning to HLCGSHLVEAL, the IC50 was 440 nM. With ALYLVCGERG, the IC50 was ≥ 100000 nM. For ALYLVCGER, the IC50 is ≥ 90200 nM. With YLVCGERGFF the figure was 2300 nM. With ALYLVCGERGF the figure was 2260 nM.

GSHLVEALYLV had an IC50 of 3730 nM. For the sequence HLVEALYLVC, the IC50 was determined as 1750 nM.
